Reference: patent US20250025549A1 (NOVAVAX, published 2025)

Molecular target: T1, human angiotensin-converting enzyme 2 precursor (hACE2), His-tagged (human, UniProt Q9BYF1 18-740)
T1 construct: also called His-tagged human ACE2; histidine-tagged hACE2
Assay: bio-layer interferometry

T1 sequence (Q9BYF1 18-740 limits assumed): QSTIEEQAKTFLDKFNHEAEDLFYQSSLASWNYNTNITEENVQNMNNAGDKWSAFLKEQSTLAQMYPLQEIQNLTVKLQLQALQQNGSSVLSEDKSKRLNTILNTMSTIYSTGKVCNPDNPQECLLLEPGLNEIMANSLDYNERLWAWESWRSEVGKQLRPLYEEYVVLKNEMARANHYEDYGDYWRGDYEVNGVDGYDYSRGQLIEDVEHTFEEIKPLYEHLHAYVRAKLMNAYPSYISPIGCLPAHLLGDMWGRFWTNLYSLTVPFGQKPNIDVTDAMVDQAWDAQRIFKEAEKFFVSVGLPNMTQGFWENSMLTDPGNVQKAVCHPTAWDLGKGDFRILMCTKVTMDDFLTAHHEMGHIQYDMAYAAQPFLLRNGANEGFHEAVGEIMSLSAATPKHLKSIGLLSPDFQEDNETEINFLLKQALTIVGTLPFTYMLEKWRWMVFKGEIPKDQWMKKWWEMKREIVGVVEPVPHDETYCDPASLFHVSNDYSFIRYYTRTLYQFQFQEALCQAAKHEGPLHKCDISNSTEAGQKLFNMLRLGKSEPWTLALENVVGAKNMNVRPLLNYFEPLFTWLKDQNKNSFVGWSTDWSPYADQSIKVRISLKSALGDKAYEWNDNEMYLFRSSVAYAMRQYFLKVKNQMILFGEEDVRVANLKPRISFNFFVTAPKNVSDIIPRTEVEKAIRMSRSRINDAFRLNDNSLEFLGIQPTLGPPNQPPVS

B1: MERS S protein (other)
chain: YVDVGPDSVKSACIEVDIQQTFFDKTWPRPIDVSKADGIIYPQGRTYSNITITYQGLFPYQGDHGDMYVYSAGHATGTTPQKLFVANYSQDVKQFANGFVVRIGAAANSTGTVIISPSTSATIRKIYPAFMLGSSVGNFSDGKMGRFFNHTLVLLPDGCGTLLRAFYCILEPRSGNHCPAGNSYTSFATYHTPATDCSDGNYNRNASLNSFKEYFNLRNCTFMYTYNITEDEILEWFGITQTAQGVHLFSSRYVDLYGGNMFQFATLPVYDTIKYYSIIPHSIRSIQSDRKAWAAFYVYKLQPLTFLLDFSVDGYIRRAIDCGFNDLSQLHCSYESFDVESGVYSVSSFEAKPSGSVVEQAEGVECDFSPLLSGTPPQVYNFKRLVFTNCNYNLTKLLSLFSVNDFTCSQISPAAIASNCYSSLILDYFSYPLSMKSDLSVSSAGPISQFNYKQSFSNPTCLILATVPHNLTTITKPLKYSYINKCSRFLSDDRTEVPQLVNANQYSPCVSIVPSTVWEDGDYYRKQLSPLEGGGWLVASGSTVAMTEQLQMGFGITVQYGTDTNSVCPKLEFANDTKIASQLGNCVEYSLYGVSGRGVFQNCTAVGVRQQRFVYDAYQNLVGYYSDDGNYYCLRACVSVPVSVIYDKETKTHATLFGSVACEHISSTMSQYSRSTRSMLKRRDSTYGPLQTPVGCVLGLVNSSLFVEDCKLPLGQSLCALPDTPSTLTPRSVRSVPGEMRLASIAFNHPIQVDQLNSSYFKLSIPTNFSFGVTQEYIQTTIQKVTVDCKQYVCNGFQKCEQLLREYGQFCSKINQALHGANLRQDDSVRNLFASVKSSQSSPIIPGFGGDFNLTLLEPVSISTGSRSARSAIEDLLFDKVTIADPGYMQGYDDCMQQGPASARDLICAQYVAGYKVLPPLMDVNMEAAYTSSLLGSIAGVGWTAGLSSFAAIPFAQSIFYRLNGVGITQQVLSENQKLIANKFNQALGAMQTGFTTTNEAFHKVQDAVNNNAQALSKLASELSNTFGAISASIGDIIQRLDVLEQDAQIDRLINGRLTTLNAFVAQQLVRSESAALSAQLAKDKVNECVKAQSKRSGFCGQGTHIVSFVVNAPNGLYFMHVGYYPSNHIEVVSAYGLCDAANPTNCIAPVNGYFIKTNNTRIVDEWSYTGSSFYAPEPITSLNTKYVAPQVTYQNISTNLPPPLLGNSTGIDFQDELDEFFKNVSTSIPNFGSLTQINTTLLDLTYEMLSLQQVVKALNESYIDLKELGNYTYYNKWPWYIWLGFIAGLVALALCVFFILCCTGCGTNCMGKLKCNRCCDRYEEYDLEPHKVHVH
notes: also called MERS-CoV spike protein
binding result: no binding
